US20150175710A1 (DEVELOPMENT CENTER FOR BIOTECHNOLOGY, published 2015)

Tests used:
[1] = target: T1, human ENO1 protein (wild type) (human, UniProt P06733 1-434); assay: ELISA, 400 ng human ENO1 coated, antibody serial dilution, four parameter logistic fit
T1 construct: Coated on ELISA plates; also called alpha-Enolase; enolase-1; not shown: source of the protein in Exampl

[2] = target: T2, human ENO1 mutant G302 to alanine (human, UniProt P06733 1-434); assay: ELISA, mutant ENO1 coated, EN10 mAb 2-fold serial dilution, four parameter logistic fit
T2 construct: Expressed in E. coli; also called A302; not shown: His tag (Ni-agarose purified)

[3] = target: T3, human ENO1 mutant D300 to alanine (human, UniProt P06733 1-434); assay: as above
T3 construct: Expressed in E. coli; also called A300; not shown: His tag (Ni-agarose purified)

[4] = target: T4, human ENO1 mutant N333 to alanine (human, UniProt P06733 1-434); assay: as above
T4 construct: Expressed in E. coli; also called A333; not shown: His tag (Ni-agarose purified)

[5] = target: T5, human ENO1 mutant K306 to alanine (human, UniProt P06733 1-434); assay: as above
T5 construct: Expressed in E. coli; also called A306; not shown: His tag (Ni-agarose purified)

[6] = target: T6, human ENO1 mutant Q305 to alanine (human, UniProt P06733 1-434); assay: as above
T6 construct: Expressed in E. coli; also called A305; not shown: His tag (Ni-agarose purified)

[7] = target: T7, human ENO1 mutant A309 to glycine (human, UniProt P06733 1-434); assay: as above
T7 construct: Expressed in E. coli; not shown: His tag (Ni-agarose purified)

[8] = target: T8, human ENO1 mutant K335 to alanine (human, UniProt P06733 1-434); assay: as above
T8 construct: Expressed in E. coli; also called A335; not shown: His tag (Ni-agarose purified)

[9] = target: T9, human ENO1 mutant E334 to alanine (human, UniProt P06733 1-434); assay: as above
T9 construct: Expressed in E. coli; also called A334; not shown: His tag (Ni-agarose purified)

[10] = target: T10, human ENO1 mutant K326 to alanine (human, UniProt P06733 1-434); assay: as above
T10 construct: Expressed in E. coli; also called A326; not shown: His tag (Ni-agarose purified)

[11] = target: T1, human ENO1 protein (wild type); assay: ELISA, ENO1 coated, EN10 mAb 2-fold serial dilution, four parameter logistic fit

T1 sequence (P06733 whole entry): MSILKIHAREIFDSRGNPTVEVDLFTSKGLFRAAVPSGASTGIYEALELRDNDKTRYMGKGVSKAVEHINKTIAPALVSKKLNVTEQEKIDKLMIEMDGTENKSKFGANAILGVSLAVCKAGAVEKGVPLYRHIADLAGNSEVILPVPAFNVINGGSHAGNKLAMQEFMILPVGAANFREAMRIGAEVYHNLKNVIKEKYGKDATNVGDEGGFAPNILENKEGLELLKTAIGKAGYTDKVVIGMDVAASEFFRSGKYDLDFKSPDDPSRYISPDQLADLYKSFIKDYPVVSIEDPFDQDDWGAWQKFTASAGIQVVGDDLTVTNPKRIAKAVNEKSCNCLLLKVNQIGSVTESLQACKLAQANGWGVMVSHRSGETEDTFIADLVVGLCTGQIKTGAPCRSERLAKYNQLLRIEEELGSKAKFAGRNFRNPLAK
T8 sequence (P06733 other isoform, or with tags, fused parts or gaps mutant limits assumed): as the sequence (P06733 whole entry) above, with K335A counted along it
T3 sequence (P06733 other isoform, or with tags, fused parts or gaps mutant limits assumed): as the sequence (P06733 whole entry) above, with D300A counted along it
T9 sequence (P06733 other isoform, or with tags, fused parts or gaps mutant limits assumed): as the sequence (P06733 whole entry) above, with E334A counted along it
T6 sequence (P06733 other isoform, or with tags, fused parts or gaps mutant limits assumed): as the sequence (P06733 whole entry) above, with Q305A counted along it
T2 sequence (P06733 other isoform, or with tags, fused parts or gaps mutant limits assumed): as the sequence (P06733 whole entry) above, with G302A counted along it
T4 sequence (P06733 other isoform, or with tags, fused parts or gaps mutant limits assumed): as the sequence (P06733 whole entry) above, with N333A counted along it
T10 sequence (P06733 other isoform, or with tags, fused parts or gaps mutant limits assumed): as the sequence (P06733 whole entry) above, with K326A counted along it
T7 sequence (P06733 other isoform, or with tags, fused parts or gaps mutant limits assumed): as the sequence (P06733 whole entry) above, with A309G counted along it
T5 sequence (P06733 other isoform, or with tags, fused parts or gaps mutant limits assumed): as the sequence (P06733 whole entry) above, with K306A counted along it

B1: anti-human ENO1 antibody EN10 mAb (antibody, V domains shown)
VH: EVQLQQSGPELVKPGASVKMSCKASGYTFTSCVMNWVKQKPGQGLEWIGYINPYNDGTKYNEKFKGKATLTSDKSSSTAYMELSSLTSEDSAVYYCAREGFYYGNFDNWGQGTTLTVSS
VL: DIQMTQSPASLSASVGETVTITCRASENIYSYLTWYQQKQGKSPQLLVYNAKTLPEGVPSRFSGSGSGTQFSLKINSLQPEDFGSYYCQHHYGTPYTFGGGTKLEITR
[1]
  Kd: 203 pM
[2]
  Kd: 345 pM
[3]
  Kd: 63300 pM
[4]
  Kd: 413 pM
[5]
  Kd: 465 pM
[6]
  Kd: 331 pM
[7]
  Kd: 5630 pM
[8]
  Kd: 9570 pM
[9]
  Kd: 107000 pM
[10]
  Kd: 787 pM
[11]
  Kd: 443 pM
